From patent US12679878B2, “CRF2 receptor agonists and their use in therapy” (SANOFI, priority 2020, dated 2026)
Starred links: 1 amine or outer side, 2 acyl side, 3 side chain; linkers in the order of their positions; H or OH if unused. Groups on a side chain read outwards from the residue. No end group written: not given here. *: point of attachment. C18 diacid = O=C(O)CCCCCCCCCCCCCCCCC(=O)*; γGlu = O=C(O)[C@H](CCC(=O)[*:2])N[*:1]; AEEA = NCCOCCOCC(=O)O

B1: SEQ ID NO: 56 (peptide)
peptide: FTLSLDVPIGLK([AEEA-AEEA-γGlu-C18 diacid])QILLKQQKQKKERQQAETNVQLLERV-NH2
modifications: N-terminus assumed
SMILES: CC[C@H](C)[C@H](NC(=O)[C@H](CCC(N)=O)NC(=O)[C@H](CCCCNC(=O)COCCOCCNC(=O)COCCOCCNC(=O)CC[C@H](NC(=O)CCCCCCCCCCCCCCCCC(=O)O)C(=O)O)NC(=O)[C@H](CC(C)C)NC(=O)CNC(=O)[C@@H](NC(=O)[C@@H]1CCCN1C(=O)[C@@H](NC(=O)[C@H](CC(=O)O)NC(=O)[C@H](CC(C)C)NC(=O)[C@H](CO)NC(=O)[C@H](CC(C)C)NC(=O)[C@@H](NC(=O)[C@@H](N)Cc1ccccc1)[C@@H](C)O)C(C)C)[C@@H](C)CC)C(=O)N[C@@H](CC(C)C)C(=O)N[C@@H](CC(C)C)C(=O)N[C@@H](CCCCN)C(=O)N[C@@H](CCC(N)=O)C(=O)N[C@@H](CCC(N)=O)C(=O)N[C@@H](CCCCN)C(=O)N[C@@H](CCC(N)=O)C(=O)N[C@@H](CCCCN)C(=O)N[C@@H](CCCCN)C(=O)N[C@@H](CCC(=O)O)C(=O)N[C@@H](CCCNC(=N)N)C(=O)N[C@@H](CCC(N)=O)C(=O)N[C@@H](CCC(N)=O)C(=O)N[C@@H](C)C(=O)N[C@@H](CCC(=O)O)C(=O)N[C@H](C(=O)N[C@@H](CC(N)=O)C(=O)N[C@H](C(=O)N[C@@H](CCC(N)=O)C(=O)N[C@@H](CC(C)C)C(=O)N[C@@H](CC(C)C)C(=O)N[C@@H](CCC(=O)O)C(=O)N[C@@H](CCCNC(=N)N)C(=O)N[C@H](C(N)=O)C(C)C)C(C)C)[C@@H](C)O
B2: SEQ ID NO: 57 (peptide)
peptide: FTLSLDVPIGLK([AEEA-AEEA-γGlu-C18 diacid])QILLKQQKQKKERQKAETNVQLLERV-NH2
modifications: N-terminus assumed
SMILES: CC[C@H](C)[C@H](NC(=O)[C@H](CCC(N)=O)NC(=O)[C@H](CCCCNC(=O)COCCOCCNC(=O)COCCOCCNC(=O)CC[C@H](NC(=O)CCCCCCCCCCCCCCCCC(=O)O)C(=O)O)NC(=O)[C@H](CC(C)C)NC(=O)CNC(=O)[C@@H](NC(=O)[C@@H]1CCCN1C(=O)[C@@H](NC(=O)[C@H](CC(=O)O)NC(=O)[C@H](CC(C)C)NC(=O)[C@H](CO)NC(=O)[C@H](CC(C)C)NC(=O)[C@@H](NC(=O)[C@@H](N)Cc1ccccc1)[C@@H](C)O)C(C)C)[C@@H](C)CC)C(=O)N[C@@H](CC(C)C)C(=O)N[C@@H](CC(C)C)C(=O)N[C@@H](CCCCN)C(=O)N[C@@H](CCC(N)=O)C(=O)N[C@@H](CCC(N)=O)C(=O)N[C@@H](CCCCN)C(=O)N[C@@H](CCC(N)=O)C(=O)N[C@@H](CCCCN)C(=O)N[C@@H](CCCCN)C(=O)N[C@@H](CCC(=O)O)C(=O)N[C@@H](CCCNC(=N)N)C(=O)N[C@@H](CCC(N)=O)C(=O)N[C@@H](CCCCN)C(=O)N[C@@H](C)C(=O)N[C@@H](CCC(=O)O)C(=O)N[C@H](C(=O)N[C@@H](CC(N)=O)C(=O)N[C@H](C(=O)N[C@@H](CCC(N)=O)C(=O)N[C@@H](CC(C)C)C(=O)N[C@@H](CC(C)C)C(=O)N[C@@H](CCC(=O)O)C(=O)N[C@@H](CCCNC(=N)N)C(=O)N[C@H](C(N)=O)C(C)C)C(C)C)[C@@H](C)O
B3: SEQ ID NO: 58 (peptide)
peptide: FTLSLDVPTKIKQILFKQQKQKKERQQAEKNKQLLEQI-NH2
modifications: not fully specified (residue 12); printed as FTLSLDVPTKIK*QILFKQQKQKKERQQAEKNKQLLEQI-NH2
B4: SEQ ID NO: 59 (peptide)
peptide: FTLSLDVPTKIKQILLKQQKQKKERQQAEKNKQLLEQI-NH2
modifications: not fully specified (residue 12); printed as FTLSLDVPTKIK*QILLKQQKQKKERQQAEKNKQLLEQI-NH2

Biological target: human corticotropin-releasing factor 2α (CRF2 α receptor) (human), Q13324
Assay: cell-based or functional assay

human corticotropin-releasing factor 2α (CRF2 α receptor) (human), Q13324, sequence (Q13324 20-411): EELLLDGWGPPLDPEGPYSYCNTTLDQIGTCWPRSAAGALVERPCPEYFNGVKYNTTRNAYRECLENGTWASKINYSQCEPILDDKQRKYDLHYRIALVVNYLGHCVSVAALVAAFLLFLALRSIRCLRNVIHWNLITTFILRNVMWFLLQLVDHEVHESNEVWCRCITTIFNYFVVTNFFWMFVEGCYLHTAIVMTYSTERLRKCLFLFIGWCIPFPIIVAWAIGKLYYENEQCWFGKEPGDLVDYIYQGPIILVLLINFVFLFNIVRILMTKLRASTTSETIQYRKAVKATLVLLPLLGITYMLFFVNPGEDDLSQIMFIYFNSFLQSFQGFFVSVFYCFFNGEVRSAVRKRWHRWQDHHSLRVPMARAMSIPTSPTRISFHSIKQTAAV

Binder	EC50 [nM], 0% HSA [nM]	EC50 [nM], 0.1% HSA [nM]
B1	22.9	–
B2	38.8	–
B3	0.28	–
B4	0.15	17.4
